Data reported in the DeepSol protein solubility set.

Assay: soluble on expression in E. coli; label from the status in PepcDB or PDB records

| Sequence | soluble on expression in E. coli |
| --- | --- |
| MAMVPAKSLATTCVASKRMMWQIPEKWTMEEASTVPCVYSTVYYALVVRGQMKKGEKILIHAGSGGVGQAAISVALAHGLTVFTTVGSKEKREFLLKRFPKLQERNIGNSRDTSFEQLVLRETKGRGVDLVLNSLSEEKLQASIRCLGLNGRFLEIGKFDLSNNSPLGMSVFLKNTSFHGILLDSVMEGEEEMQNQVVSLVAEGIKTGAVVPLPTSVFNDQQVEQAFRFMASGKHIGKVVIK | soluble |
| MANANPFARIADRYDGTPPRLRPPLVTQAVGEVIPFVDTAGCFVEAYTPRRVAVRLDNEERLHNHLGGLHAAALALLAETATGLVVALNVPDGSSPLLRTMDISFENFARDAVQAEATLTDAETSQVRSRPLGQIAVDVALTAPDDDTTLVAGTLTWAWVPEARLVDEGERLEHHHHHH | not soluble |
| MANDDLQQRLDKGMYGTPLVNPEEQHKYMGTFRERCRLSMTVAEMKDAQNQKHLLEELAKHPEVTVLLNGEISSDLQSTYIKLLNQHGANFKIVNNFVENNPDSLGLLLAEKHAVDEPVIDVTEKYPQATETPKEEPTAKKSFWQKLFHS | not soluble |
| MANEIPTKGILKSEALKQYIMETSAYPREHELLKELRKATVQKYGNLSEMEVPVDEGHFLSMLVKIMNAKNTIEIGVFTGYSLLTTALALPEDGRITAIDIDKEAYEVGLEFIKKAGVDHKINFIHSDGLKALDQLVNDKCEFDFAFADADKSSYVNFHERLLKLVKVGGIIAFDNTLWFGFVAEDEDGVPEHMREYRAALIEFNKKLALDPRVEVSQISIGDGITLCRRLV | soluble |
| MANFNVPKLGVFPVAAVFDIDNVPEDSSATGSRWLPSIYQGGNYWGGGPQALHAQVSNFDSSNRLPYNPRTENNPAGNCAFAFNPFGQYISNISSAQSVHRRIYGIDLNDEPLFSPNAASITNGGNPTMSQDTGYHNIGPINTAYKAEIFRPVNPLPMSDTAPDPETLEPGQTEPLIKSDGVYSNSGIASFIFDRPVTEPNPNWPPLPPPVIPIIYPTPALGIGAAAAYGFGYQVTVYRWEEIPVEFIADPETCPAQPTTDKVIIRTTDLNPEGSPCAYEAGIILVRQTSNPMNAVAGRLVPYVEDIAVDIFLTGKFFTLNPPLRITNNYFADDEVKENTVTIGNYTTTLSSAYYAVYKTDGYGGATCFIASGGAGISALVQLQDNSVLDVLYYSLPLSLGGSKAAIDEWVANNCGLFPMSGGLDKTTLLEIPRRQLEAINPQDGPGQYDLFILDDSGAYASFSSFIGYPEAAYYVAGAATFMDVENPDEIIFILRNGAGWYACEIGDALKIADDEFDSVDYFAYRGGVMFIGSARYTEGGDPLPIKYRAIIPGLPRGRLPRVVLEYQAVGMSFIPCQTHCLGKGGIISKV | not soluble |
| MANPFSKAWKYLMALFDSKIEENADPKVQIQQAIEDAQRQHQELSQQAAAVIGNQRQLEMQLNRRLAEIEKLQGNTRQAIQLADKARAEGNIQKATEYENAAEAFAAQLVTAEQGVEDTKQLHDQALQQADAAKKAVERNAMVLQQKVAERTKLLSQLEQAKMQEKVAESIQSMNSISNRDTPNLDQVREKIERRYANALGTAELAQNSVQGRMAEVEQAGIQLAGHSRLEQIRAEMSGGQLGAGNSATQQSIESAQQATPSAADDAVARKMRELRGEA | not soluble |
| MANQKQVLDVQVSKGITTAQSNEHLRDRSEKAEKYAMSKGNYDPTRKRLNFEIAPGGKIHPIDTSRSIPKRMADILSHRGIKDPNEGLLEPKYRTVVNIIFGGSRQRMQELAFGTQQVDFEKGADNTRIERKRDIERWAKDVYSFVCGRYGEQNIAAFIVHLDELNPHIHCTLLPIKDSRFAYKEIFAGKDKFEYSARMKQLHTDFFAEVNTKWGMSRGTSISETGARHRTTEEYRRMLSEECTTIEDNIKLHQQVLGELQSDIRLAERRVKGLTTMVSNLEKQKTEKETLLSAAEYNLKENKGNAAELAIQIQMLEKELQGIIRQLADKQEKLQTADRQLIELKKDMGAIEERTEELKEEAYQYSRDVHSKVDSLFKDVLLESVISEYRNASAQMNVSERQLFDGSLVQSIAERGTEIMHCATMLFLGMVDDATTFAESHGGGGGGSDLKWGRDEDEDNRAWALRCMRMASRMMRSTIGKKSKRLEHHHHHH | not soluble |
| MANRSHHNAGHRAMNALRKSGQKHSSESQLGSSEIGTTRHVYDVCDCLDTLAKLPDDSVQLIICDPPYNIMLADWDDHMDYIGWAKRWLAEAERVLSPTGSIAIFGGLQYQGEAGSGDLISIISHMRQNSKMLLANLIIWNYPNGMSAQRFFANRHEEIAWFAKTKKYFFDLDAVREPYDEETKAAYMKDKRLNPESVEKGRNPTNVWRMSRLNGNSLERVGHPTQKPAAVIERLVRALSHPGSTVLDFFAGSGVTARVAIQEGRNSICTDAAPVFKEYYQKQLTFLQDDGLIDKARSYEIVEGAANFGAALQRGDVAS | soluble |
| MANSGEEKLKLYSYWRSSCAHRVRIALALKGLDYEYIPVNLLKGDQFDSDFKKINPMGTVPALVDGDVVINDSFAIIMYLDEKYPEPPLLPRDLHKRAVNYQAMSIVLSGIQPHQNLAVIRYIEEKINVEEKTAWVNNAITKGFTALEKLLVNCAGKHATGDEIYLADLFLAPQIHGAINRFQINMEPYPTLAKCYESYNELPAFQNALPEKQPDAPSSTI | soluble |
| MANSLRNVNDYDPFKYRPSYFDLEAPTESFALGKFVDAIEVKQMALDAFSESSMVSIATSQLPKTAYTATSFIESEYYSFPYLFNDQKYYWDYFDYKIPAADFAVLELELDLNNQQDQQIKDHFIDPAIKAYKQLGDSTGLFATKPLTEYQNDTHYLLGYPVVPTDHTQLWECKQGAERFSYGYFYSNMARLTKNLRQGDPNAGSKTHIEYSNELLDKDSMDQGIVRFSTFLGANINYHDYDYRQQGYGLTLTDTNLPGGSSGSLVFNQDKKISSIYSAATESDSVGYAQLLRTPRDVNGISVVSQSYDLIFGDSNTKRYYAMFAKKQQTHLYSEILKSTDEQYRYVVDKQFN | soluble |
| MANSPKKPSDGTGVSASDTPKYQHTVPETKPAFNLSPGKASELSHSLPSPSQIKSTAHVSSTHNDAAGNTDDSVLPKNVSPTTNLRVESNGDTNNMFSSPAGLALPKKDDKKKNKGTSKADSKDGKASNSSGQNAQQQSDPNKMQDVLFSAGIDVREEEALLNSSINASKSQVQTNNVKIPNHLPFLHPEQVSNYMRKVGKEQNFNLTPTKNPEILDMMSSACENYMRDILTNAIVISRHRRKAVKINSGRRSEVSAALRAIALIQKKEEERRVKKRIALGLEKEDYENKIDSEETLHRASNVTAGLRAGSKKQYGWLTSSVNKPTSLGAKSSGKVASDITARGESGLKFREAREEPGIVMRDLLFALENRRNSVQTIISKGYAKIRD | not soluble |
| MAPGQLALFSVSDKTGLVEFARNLTALGLNLVASGGTAKALRDAGLAVRDVSELTGFPEMLGGRVKTLHPAVHAGILARNIPEDNADMARLDFNLIRVVACNLYPFVKTVASPGVTVEEAVEQIDIGGVTLLRAAAKNHARVTVVCEPEDYVVVSTEMQSSESKDTSLETRRQLALKAFTHTAQYDEAISDYFRKQYSKGVSQMPLRYGMNPHQTPAQLYTLQPKLPITVLNGAPGFINLCDALNAWQLVKELKEALGIPAAASFKHVSPAGAAVGIPLSEDEAKVCMVYDLYKTLTPISAAYARARGADRMSSFGDFVALSDVCDVPTAKIISREVSDGIIAPGYEEEALTILSKKKNGNYCVLQMDQSYKPDENEVRTLFGLHLSQKRNNGVVDKSLFSNVVTKNKDLPESALRDLIVATIAVKYTQSNSVCYAKNGQVIGIGAGQQSRIHCTRLAGDKANYWWLRHHPQVLSMKFKTGVKRAEISNAIDQYVTGTIGEDEDLIKWKALFEEVPELLTEAEKKEWVEKLTEVSISSDAFFPFRDNVDRAKRSGVAYIAAPSGSAADKVVIEACDELGIILAHTNLRLFHH | soluble |
| MAPKDITFVERCYKYIDMNKNNWSPYTVTSTKSWVKNYIEPFFKNLKLTEVNPSSVQAFVNYNFNNSTFTSAKVRYSFLSSVIREAYRLREIQENSCDFIKLPLEHHHHHH | soluble |
| MAPTQAGHDTAYLKETVGEALARGCAAAISAQPNDPVEYLGLWLLKYVKNAEVEGNFYRERQQDLQKKKDRLVKEAQSEQAAKSVALTRKEAADALALVTAEPRELLEAAVKLVKQHTAAGAAYAAVVAEPEEPDWVAPEDDEAAAVETEDEAAGGAALAEGEEPPPEPEPEPEAAPEDGEGDAPAPKIPRPVDYSKKYFAYVAASAGQEHVLEADLYRPAPPPEDADEDFKPEPLPYSFRVLDEKLPMLYVPNVAAEERVKFFRKFPKIGSYQACGVALPASGEFKALLAADTLFPEGSGQPLSADDRDFVWEVSQSLSRALEAVQARAAEALAATSAAEAVEELKAKVAELREQAAAEAAAAAPPPPAEGEEGEGEAPPAEEEPPAEEEAEEEEEEAEEGAEEGAEEGEEGEEAPPKPKKKKKVFNPIPGLQAAIEKLTAAAEAATEADARAQAAVALEKQALDEVVALASSHSDATLSSLRNMLSVPQGTYHVVKALLHLLGRPAASFSTWKRAHSHFSPRLFEDMAAYDATAERDMAVWGRVRSCYKAAPAAKKLDAEMPNTLFGSVALMYIKQVRRVARKAVLQRELAAKLAKAQQDLADKQAALVEAERVKAEREAEEARLAAEAEAAAAAEAEAAARAAAEAEAAAAAEAAAEAAAEAAAAAAEAAAEAGEGEAVAEREAAPAEAEAAPAEGEAAPPAEGEGEAQPAQEGSNSSSSSSDSSSSEESKAAAE | not soluble |
| MAPVIRRAKEIDLYCLNSLMYKLHDEHHQQCPDLFKTASEIEEEKSIARYLDDPECMVYVAEMDDVIIGFITGHFCELISTVSKLVMMATIDELYIEKEYRREGVAEQLMMRIEQELKDYGVKEIFVEVWDFNKGALEFYNKQGLNEHIHYLRKPLNRLEHHHHHH | soluble |
| MAQHVKFHQYFFQWMQLYKLDAVRPVTYRKYEMSHRQLVTLAPDLKMADLSRLTYQQLLNDYAETHERQTTMDFHRHLKGSLIDALEEGFIDRDPTRKAIIKGIKHRQHKLEHHHHHH | soluble |
| MAQHVKFHQYFFQWMQLYKLDAVRPVTYRKYEMSHRQLVTLAPDLKMADLSRLTYQQLLNDYAETHERQTTMDFHRHLKGSLIDALEEGFIDRDPTRKAIIKGIKLEHHHHHH | not soluble |
| MAQLYFYYSAMNAGKSTALLQSSYNYQERGMRTVVYTAEIDDRFGAGKVSSRIGLSSPAKLFNQNTSLFEEIRAESARQTIHCVLVDESQFLTRQQVYQLSEVVDKLDIPVLCYGLRTDFRGELFVGSQYLLAWSDKLVELKTICFCGRKASMVLRLDQDGRPYNEGEQVVIGGNERYVSVCRKHYKDALEEGSLTAIQERHRHILEHHHHHH | soluble |
| MAQQQNPYYGTGFYQPSGTYVQPQQMTQQQQQAMQQQTAQAAQAQYAISQGMLPLEQSYIENILRLNKGKQATVVMTYERGSSLGTQSYTGIIEAAGRDHIVISEPQSGKRYLLLMIYLDYVEFPEEITYLPSQQATYTPRP | soluble |
| MAQTAFHVEFNKAPEDQATKTHNRWHPDIPMVEWFNPGDEFRVECYDWTGGQISNDDSANDVRDVDLTRVHYLSGPFGVKGAEPGDLLVVDLLDVGALPESAWGFTGIFARENGGGFLCEHFPDARKACWDFHGIYTTSRHVPNVRWPGIIHPGLIGCLPDRALLERANKREAALLATDPNRVPPLLAPSYADTALMGQMSGEAARKAGAEAWRTVPPREHGGNCDIKNLSRGSRVYFPVYVKGGGLSMGDIHWSQGDGEITFCGAIEMAGFLDIRVDLIKDGINKYGIVNPIFKPSPIEPHFAEYLVFEGISVDEHTGEQYYLDAHVAYRRACLNAIEYLKKFGYTSEQAYIILGTAPVEGRISGIVDIPNACCTLAIPTEIFDFDIRPNAAGPSAKVGKAKVAVTSLEHHHHHH | not soluble |
